# In PMC3460915, “Identification, Characterization and Application of a G-Quadruplex Structured DNA Aptamer against Cancer Biomarker Protein Anterior Gradient Homolog 2”:
# B1: C14B (ssDNA)
# DNA: TCTCGGACGCGTGTGGTCGGGTGGGAGTTGTGGGGGGGGGTGGGAGGGTTCTTTGTTTGATCTTTCTCGCTGCCTGGCCCTAGAGTG
# B2: C14B0 (ssDNA)
# DNA: CGGGTGGGAGTTGTGGGGGGGGGTGGGAGGGTTCTTTGTTTGATCTTTCTCGCTGCCTGGCCCTAGAGTG
# B3: AGR2-aMB (structured_DNA)
# DNA: CGACGCACCGATCGCAGGTTCGGGATTTTCGGGTGGGAGTTGTGGGGGGGGGTGGGAGGGTT
# B4: C14A (ssDNA)
# DNA: TCTCGGACGCGTGTGGTCGGGGGGGCGGGGGTTGGGTGGTGGCTTCATTTTGTTTCACGTCGTCCTCGCTGCCTGGCCCTAGAGTG
# B5: C14C (ssDNA)
# DNA: TCTCGGACGCGTGTGGTCGGCGTTGGGTGGGGGTGGCGGGGGTAGGGTGGTAGGTCGCTAAAATGCTCGCTGCCTGGCCCTAGAGTG
# B6: C14D (ssDNA)
# DNA: TCTCGGACGCGTGTGGTCGGTGCATTCTTCTGTTCTTTTAGTGTTTTGTGTTGTATGTTCTTATCCTCGCTGCCTGGCCCTAGAGTG
# Tests used:
# [1] = biological target: GST (on GSH-Sepharose beads) (UniProt P08515 1-218); assay: flow cytometry bead binding; 1x PBS (137 mM NaCl, 2.7 mM KCl, 10 mM Na2HPO4, 2.0 mM KH2PO4), pH 7.4, 37 C, 45 min, 200 uL; K+ varied in Fig 4; conditions: protein: recombinant; chain copies: 2; label: FAM
# GST (on GSH-Sepharose beads), sequence (P08515 whole entry): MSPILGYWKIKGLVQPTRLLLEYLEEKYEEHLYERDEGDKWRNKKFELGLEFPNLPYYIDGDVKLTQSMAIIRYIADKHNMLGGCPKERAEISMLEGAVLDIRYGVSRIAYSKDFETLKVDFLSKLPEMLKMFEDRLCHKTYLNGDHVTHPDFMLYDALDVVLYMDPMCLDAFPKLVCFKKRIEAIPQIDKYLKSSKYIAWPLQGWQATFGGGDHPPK
# [2] = biological target: T1, GST-AGR2 (on GSH-Sepharose beads) (UniProt O95994 21-175); assay: as above; conditions: protein: recombinant, (pGEX-GST-AGR2)
# T1 sequence (O95994 21-175): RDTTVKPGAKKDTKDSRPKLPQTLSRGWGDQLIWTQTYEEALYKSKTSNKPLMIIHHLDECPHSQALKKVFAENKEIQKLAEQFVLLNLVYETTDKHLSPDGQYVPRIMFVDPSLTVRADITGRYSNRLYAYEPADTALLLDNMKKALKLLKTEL
# [3] = biological target: Streptavidin (SA beads) (UniProt P22629 25-183); assay: SA-bead flow cytometry (allosteric beacon); with AGR2; 1x PBS (137 mM NaCl, 2.7 mM KCl, 10 mM Na2HPO4, 2.0 mM KH2PO4), pH 7.4, 37 C, 45 min, 200 uL; K+ varied in Fig 4; conditions: protein: commercial; chain copies: 4; label: 3' FAM; hairpin
# Streptavidin (SA beads), sequence (P22629 25-183): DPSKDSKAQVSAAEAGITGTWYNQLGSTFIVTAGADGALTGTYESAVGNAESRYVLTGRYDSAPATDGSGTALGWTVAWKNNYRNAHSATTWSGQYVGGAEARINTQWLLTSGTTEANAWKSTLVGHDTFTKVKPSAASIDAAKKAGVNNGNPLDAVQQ
# [4] = biological target: Thrombin (UniProt P00734;P00734 328-363;364-622); assay: SA-bead flow cytometry (allosteric beacon); 500 nM; SA beads; 1x PBS (137 mM NaCl, 2.7 mM KCl, 10 mM Na2HPO4, 2.0 mM KH2PO4), pH 7.4, 37 C, 45 min, 200 uL; K+ varied in Fig 4
# [5] = biological target: T1, GST-AGR2 (on GSH-Sepharose beads); assay: SA-bead flow cytometry (allosteric beacon); SA beads; 100 nM AGR2 detected; 1x PBS (137 mM NaCl, 2.7 mM KCl, 10 mM Na2HPO4, 2.0 mM KH2PO4), pH 7.4, 37 C, 45 min, 200 uL; K+ varied in Fig 4; conditions: protein: recombinant; (pGEX-GST-AGR2); label: 3' FAM; hairpin
# [6] = biological target: T1, GST-AGR2 (on GSH-Sepharose beads); assay: flow cytometry bead binding; with K+; 1x PBS (137 mM NaCl, 2.7 mM KCl, 10 mM Na2HPO4, 2.0 mM KH2PO4), pH 7.4, 37 C, 45 min, 200 uL; K+ varied in Fig 4; conditions: protein: recombinant; (pGEX-GST-AGR2); label: 3' FAM; intramolecular parallel G4
binder,measurement,setting,value
B1,binding result,[1],no binding
same,Kd,[2]; label: FAM,13.1 ± 7.2 nM
B2,Kd,[2]; label: FAM,8.5 ± 3.6 nM
B3,binding result,[3],binds
same,binding result,[4],no binding
same,binding result,[5],binds
CGGGTGGGAGTTGTGGGGGGGGGTGGGAGGGTT (structured_DNA) [C14B1],Kd,[6],6.2 ± 1.9 nM
same,Kd,"[2]; label: 3' FAM, intramolecular parallel G4",19.1 ± 5.1 nM
B4,Kd,[2]; label: FAM,20.9 ± 5.2 nM
B5,Kd,[2]; label: FAM,44.6 ± 7 nM
B6,Kd,[2]; label: FAM,48.4 ± 15.6 nM
